T1: human LAG3 (Human LAG3/FGL1 TR-FRET Binding Assay, BPS Bioscience) (human, UniProt P18627 23-450, limits assumed)
T1 construct: Kit reagent (BPS Bioscience); construct not described
T1 sequence (looked up): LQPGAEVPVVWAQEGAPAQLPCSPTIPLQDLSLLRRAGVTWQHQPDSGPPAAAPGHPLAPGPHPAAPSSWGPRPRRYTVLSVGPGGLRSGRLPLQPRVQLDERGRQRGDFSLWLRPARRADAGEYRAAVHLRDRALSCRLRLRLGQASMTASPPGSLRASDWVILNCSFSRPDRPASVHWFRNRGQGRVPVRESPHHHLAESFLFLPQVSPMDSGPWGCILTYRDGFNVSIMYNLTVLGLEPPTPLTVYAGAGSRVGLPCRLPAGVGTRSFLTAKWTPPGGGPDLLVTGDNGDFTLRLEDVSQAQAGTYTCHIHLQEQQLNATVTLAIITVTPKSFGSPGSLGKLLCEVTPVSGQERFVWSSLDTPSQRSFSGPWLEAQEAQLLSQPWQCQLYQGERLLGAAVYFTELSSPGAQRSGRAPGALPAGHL

T2: Tag1-LAG3 protein (UniProt P18627 23-450, limits assumed)
T2 construct: Kit reagent (Cisbio); Tag1 is not identified
T2 sequence (looked up): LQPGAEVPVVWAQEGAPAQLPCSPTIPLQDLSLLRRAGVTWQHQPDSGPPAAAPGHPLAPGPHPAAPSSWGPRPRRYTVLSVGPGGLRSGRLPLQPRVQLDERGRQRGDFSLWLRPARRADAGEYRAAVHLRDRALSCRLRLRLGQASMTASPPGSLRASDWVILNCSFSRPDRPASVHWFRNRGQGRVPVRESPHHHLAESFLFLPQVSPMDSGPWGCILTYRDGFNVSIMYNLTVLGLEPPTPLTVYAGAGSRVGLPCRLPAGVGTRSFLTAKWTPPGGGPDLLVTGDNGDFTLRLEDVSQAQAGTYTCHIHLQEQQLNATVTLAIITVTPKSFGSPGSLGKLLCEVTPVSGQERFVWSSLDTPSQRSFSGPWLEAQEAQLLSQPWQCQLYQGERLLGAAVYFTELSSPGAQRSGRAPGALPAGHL


How the values were obtained:
[1] = biological target: T1, human LAG3 (Human LAG3/FGL1 TR-FRET …); assay: TR-FRET competition, inhibition of LAG3:FGL1 binding
Description: Reaction mixes were incubated 1 hr at RT before development. After development, plate was read in a Tecan M1000 TR-FRET instrument.

[2] = biological target: T2, Tag1-LAG3 protein; assay: HTRF (TR-FRET) competition, inhibition of LAG3:MHC-II binding
Description: Anti-Tag1-Tb and anti-Tag2-XL665 antibodies were added and incubated for one hour, then simultaneous measurement of both […] cryptate and 665 nm acceptor emissions were read.

Binder	IC50 [1]	IC50 [2]
ITMWGYDTDEDDNLVIYLTD (20-mer peptide) [peptide 6]	2.6 µM	–
EHNREQVLEVMYSFQVNDYF (20-mer peptide) [peptide 154]	7.2 µM	–
RTDRYTLSYIWTSDEWMLFD (20-mer peptide) [peptide 115]	9.1 µM	0.154 µM
RERGGDDFAQDDYYVTIFYR (20-mer peptide) [peptide 11]	–	0.353 µM
VFRMDWDEKEVRLYADDILL (20-mer peptide) [peptide 146]	7.2 µM	0.199 µM
QGSTSGWGFGAMYELTYDVY (20-mer peptide) [peptide 16]	–	0.22 µM
SLPYSNIYIELDSGYWNSES (20-mer peptide) [peptide 155]	–	0.13 µM
HIQNWSYWLNQDMMNQQVWKS (peptide positive control in the LAG3/FGL1 assay) [Peptide LG56]	14 µM	–
AEFDHFDVGQTLDIASWDSY (20-mer peptide) [peptide 69]	3.3 µM	–
RVPAPVKEQVQKQYPNAGAI (also called Low Activity Peptide) [Peptide 93]	–	63 µM
LAGHYHYLTAGSQDIYEYND (20-mer peptide) [peptide 62]	–	0.308 µM
EDKAPWWQLDMEFEFRLDRV (20-mer peptide) [peptide 68]	~21 µM	2.94 µM
SAPWEPLHWPEDWWQGTGEW (positive peptide control in the LAG3/MHC-II assay) [Peptide LG11]	–	18.4 µM
TVDADGDLYFDMEEGVLVFM (20-mer peptide) [peptide 41]	9.2 µM	–
GGVAIFLALFGGMVSSWEWD (20-mer peptide) [peptide 141]	–	6.69 µM

From patent publication US20220033441A1 (LEIDOS, published 2022)
